experiment: label from the status in PepcDB records
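Note: failed if final PepcDB status was selected cloned or expressed and not failed if soluble or beyond.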

Sequence	protein production
MSSVINYEKFEKIDISSSDDDNKKKLNPHLTKLDNKDKVVIGPNGLTILKNNNDEKIKHDKYNNTSKNVEEIKDKNDEYKTIYNETNNEILNNKNDNIHVQNMNNYVADDKKYKDMFINGAVVPYEYIWNQSIHYINAFICLPLNCKAKNLIVDIKEDKLIVKIKNYKCGIIYNNNNNNNKTNQHNTQSNSFHDNVEILVDKKFPFKINTDEDTQIWEIKNMQINWYTLFNLSNEINNQNVHYLFEDYNMLDKQETFLYISVKKINEIENAYIWWSTLFKNEHPIKIENLPSRSSTNKAKKTMNSFKTAWDEAHEIFKKNISMKQLPFRIDSS	failed
MSSVSLQDFDAERIGLFHEDIKRKFDELKSKNLKLDLTRGKPSSEQLDFADELLALPGKGDFKAADGTDVRNYGGLDGIVDIRQIWADLLGVPVEQVLAGDASSLNIMFDVISWSYIFGNNDSVQPWSKEETVKWICPVPGYDRHFSITERFGFEMISVPMNEDGPDMDAVEELVKNPQVKGMWVVPVFSNPTGFTVTEDVAKRLSAMETAAPDFRVVWDNAYAVHTLTDEFPEVIDIVGLGEAAGNPNRFWAFTSTSKITLAGAGVSFFLTSAENRKWYTGHAGIRGIGPNKVNQLAHARYFGDAEGVRAVMRKHAASLAPKFNKVLEILDSRLAEYGVAQWTVPAGGYFISLDVVPGTASRVAELAKEAGIALTGAGSSYPLRQDPENKNLRLAPSLPPVEELEVAMDGVATCVLLAAAEHYAN	not failed
MSSWPQERRDSLLELVRKSREIFSSMKPLLRVGDRPRAVFVGDTHGAFMVTKYVFENFSDYDAIVFLGDYVDREPYGLENLEIILSHFVENKDKVIVLRGNHESPLTNEYYGFRAEVREKLGDENYKEFVDLFSEMPYAAIVNNYLCVHGGIARNLKNVQQIEELKKPDIIPEDEIAFEMLWNDPREELDGFVPNIRGEGTFFYGKDVTLEFLKENSLKGIIRGHEVADGFRSEIDERVITVFSSRYHKMRAGILLQDGEKFNMVYLDEEFLLKGDKS	failed
MSTAGLFSIFLIGIASNLDNAGVGIAYGIRKIRISWFNNFIIAFFGFLFTLLAGFFGNWIALFISEFTANLIGAIVLGIIGVFILCQPFLGQRNTVGSKDGNVLMGILRDPEKADFDGSKTISFSEAIVLGIALSINNIAGGFDAGITNLNLWLTATISGVFSFICISGFAYVGKRFLAEYLGKWATIIAEVLLILIGIDQLL	failed
MSTDQTPTAAGSGFSYTLTRTLDAPAARVWQAWTTPDQYAQWAYAVPGSVEMDVRPGGTWKATMRTPDGTEFPLTGSYIEVAEHRALTIGMNVPGRPDPATMTVELAEEGPRNTVITLRQTCDTAEERDGAEQGSGMLLDGLTGFLAGGKQG	failed
MSTEKIINLAAYAGKILLQSGAEIYRVEETMNKICTAFNVKEAESFVTPTGIIISITGEDEKITSTIKRIQVRTVDLRKISEVNDLSRTLQYKNFSLEEVADKLKKIDNEKKHSDLFLIFFSAVAAGFFTLIFGGTFRDFSVSFFIGIIIKIFSIIISRLEINDFFLNMVGGAIAAFIALLFKKLGVVVYLDKTIIGSIMLLVPGLAITNAVRDTIAGDLVSGVSRALDAFFTAVAIAAGTGLVFKIWINFFGGTGL	failed
MSTELIAAVEAADSAEGLVRAVAALSAARTDAAIPTLISVLAFNNPGAAVVAVDGLIQLGSPAAQAILNNLDDYNYGARAWALRALAGIGEPAALPLLLSAAREDFSLSVRRAATYGLGRVRWADLSESDRLAQQQQCYETLKLCLQYDPEWVVRYAAAAALETLAPAATQLQSAIAETLNRQAHSDEERAVQARSRLAERRLAGGVLEHHHHHH	not failed
MSTHVTFDYSKALSFIGEHEITYLRDAVKVTHHAIHEKTGAGNDFLGWVDLPLQYDKEEFARIQKCAEKIKNDSDILLVVGIGGSYLGARAAIEMLNHSFYNTLSKEQRKTPQVLFVGQNISSTYMKDLMDVLEGKDFSINVISKSGTTTEPALAFRIFRKLLEEKYGKEEARKRIYATTDKARGALKTLADNEGYETFVIPDDVGGRFSVLTPVGLLPIAVSGLNIEEMMKGAAAGRDDFGTSELEENPAYQYAVVRNALYNKGKTIEMLINYEPALQYFAEWWKQLFGESEGKDQKGIFPSSANFSTDLHSLGQYVQEGRRDLFETVLKVGKSTHELTIESEENDLDGLNYLAGETVDFVNTKAYEGTLLAHSDGGVPNLIVNIPELNEYTFGYLVYFFEKACAMSGYLLGVNPFDQPGVEAYKKNMFALLGKPGFEELKAELEERLK	not failed
MSTLIQDLKAQAGIFESDADQVHGLLAEFPDPGALLHAAEAVREEGYRHFDTHSPFPIHGMDEAMGLGNASAVGVLTFFGGITGCVVAYLLQWWTAAVDYPLNISGKPFFAVEPSVPIMFELTILFAAFGTVAGMFALNGLPRPYNPLFYSDRFKGATDDRFFLHIAASDDEFDVEDSAAMLQRLGAHHLELVKDDGTVDA	failed
MSTQFSDKFIQNLKPEAKKYYIRESRGFAIVVHPSGIKNPKGTKTFLYIYTINGKRKELKLGNYPEVTLKDARIKHGEAYARLVNGEDPVTPPVIKAEPQDENLTFGHFTELYLQWSKDNHSPKWHNTIKCALNKDALPVWEYTLIASIKRRDAIAFLENVARRGIQVINLHKATSSVFDYALEREYIESNPMAGLKAKTIPALKPKARERFLSDSEIKHVWKAIDEGPGYDETKRALKLIMVTAQRPGEVAAMHRREIQTGVGKPRCKICKRCGWWTIPAERMKNGEEHRIYLTPTALELIGDAEGYIFPSPQDGQPINRNSLSQLVSRERNNKKPNGEMYPPYYGLPEWTPHDLRRTARTLLARVGVPEEHAEEVLSHKKEGLVDRYNRHDYMEEKKEALIKLEAELMKLSI	failed
MSTQTSIEWTEMTWNPIVGCTKVSPGCKHCYAENMAHRLQAMGTPGYENGFKLSLRPEKLREPLQRKKPTIYFVNSMSDLFHEKVPDHYIDQVFEVIREATQHTFQILTKRAERLADYFSKRTPPTNAWLGVSVEDKAYGVPRIDCLRRVNATIRFLSAEPLLEDLGEIDLTDIHWVIVGGESGNKARPMQQEWVDNIHRQCDVSGSAFFFKQWGGWGADGVKRSKKANGRLLNGQTWDEIPLLNLALEHHHHHH	failed
MSTQYWEEEIEIMSREKLQELQLQRLKKTINIAANSPYYKEVFSKNGITGDSIQSLDDIRKIPFTTKSDMRANYPFGLVAGDMKRDGVRIHSSSGTTGNPTVIVHSQHDLDSWANLVARCLYMVGIRKTDVFQNSSGYGMFTGGLGFQYGAERLGCLTVPAAAGNSKRQIKFISDFKTTALHAIPSYAIRLAEVFQEEGIDPRETTLKTLVIGAEPHTDEQRRKIERMLNVKAYNSFGMTEMNGPGVAFECQEQNGMHFWEDCYLVEIIDPETGEPVPEGEIGELVLTTLDREMMPLIRYRTRDLTRILPGKCPCGRTHLRIDRIKGRSDDMFIIKGVNIFPMQVEKILVQFPELGSNYLITLETVNNQDEMIVEVELSDLSTDNYIELEKIRRDIIRQLKDEILVTPKVKLVKKGSLPQSEGKAVRVKDLRDNK	not failed
MSTSDPSAERPRDNFIYDIIDEDLEHGTYDGRVVTRFPPEPNGYLHIGHAKSIVLNFGIKHDYADRADTRCHLRFDDTNPDTESTEYVESIKEAVQWLGYDWEEHEYHASDYFEQFYQYAVTLIEQGDAYVDSLSEEEIREYRGTVDEPGTPSPYRDRSVEENLELFRKMRDGEFDDGEHVLRAKIDMSSPHMIMRDPLLFRIKHAHHYRRGDEWCIYPMYDYAHPLEDAIENITHSLCTLEFDNNRRVYDWVMEHCLDENELPSRPRQYEFNRLNLGYTVMSKTKLRHLIEEDLVGGWDDPRLPTISGLRRRGVPPSAIRSFCRTVGVTRSQSRVQIGHFEHALRDDLNAKAPRVMAVLDPLKVVATNVDADAVDWIDANHWPRDIDKDETRPVPFTREFYIERDDFREDPPEDFIRLAPGREVRLRHAYFFTCEEVVRDEDGVVTELRGTIDPETRDSTAPDGRSPEGTLHWVSAAHGLPFEARLYDRLFEVPDPDARDEHFTEFLNPDSLNVRQGVLEPAVRDLEADQRVQFERQGYFWPDPEASRPDALVYNQIVPLRDTWGEDEDGLTQEELARRRRAKEQRKQEQRRRSLDGKTDPAEHLDDAQRDRFDRFHDELGIDREDAATIAGNGALAGFFEQALAHYDAPVPVANWTVNELLGRLQDQTVADLPFGPDAFAELVRLVDTEFISTRGGDAVLDALLEDGGSPERIVDDRGLRQVDDTEALRPTVQSVLDDHPDEVSRYRDGKKGLIGFFMGQVMDATDGAASPELARELLQQELDPSA	failed
MSTSHPISKIYFSDKKSLQKVDILLEQEGIRRDTNLDYICAMFDDDLNIIATGSCFGNTLRCLSVDHHYQGDGLLNEIVTHLINIQFERGNTHLFLYTKPDTAKFFKDLGFYEIARADKQIVFMENKKDGFSNYLKNLEKPDSECQTTAALVINANPFTLGHQYLVEKAAAENELLHLFMVSDDSSLIPFSVRKQLILAGTEHLSNICYHETGPYIISKSIFPSYFQKDQASVIESQARIDLAIFIQIAKYLGIKGRYVGEEPTSLVTGIYNQIMLQELPKQAIDCIVVPRKTYKDGPISASTVRKALKEGNEQILRELLPSTSLNYFLSPEAQPLIKKIQKADNVIHY	failed
MSTSPYEKLSEQEKKQMIKEIQEQAYEALLYAFGVEKKMISDDVKNLLNIEQESAEEKRKMAYEATLLAATFSHSLAKDRDGVLATLKNQLHITDDFHRECQNRVRNNILVVQLTGEASGSNYVGETGWTTLRRISNTIFRF	failed
MSTSQTKNVSIDTIKEFMYQVLLKVGSDEENARMVRDTLIAADLRGMDTHGIQRFKTVYIDRIKKGMINPTAKPSIIRETSTTCVLDGNNGFGHVNGTIGMKMAIEKAKKYGMGMVVVRNSTHFGIAGYYSLLAAQEGCIGICGTNARSSVAATFGDEPILGTNPLAIGIPSDEAFPYCFDGATSISPTGRFEKYVRMGKTVDKSWASMKGGKPIEDPKELLENYPKGKAYLHPLGGSDEVSGSHKGYCLSEFVEIMSSCLSIANFLNHIEEEKEKSGKFSLGHFFIAINVECFRDLNEFKKNVGDINRTLRNTDKLPGHDRIYTAGEKEYETEQKRRKFGDDLPLVTINEMKELSSFYNVPLPF	not failed
MSTTMKRQGCSSDSGDLRRQPSRLLKRPPALKIVPATPAANNWNTAIPLLSPLALSPESSPVDQPPVEKNQSTAVAVEKTPVFKKWQHPAAPFYYESSTFVPPFVPV	failed
MSTTTATLRDAIPDTRSLVTWAAVLNAEFILILGYVVNTAQPATDPFLLVFPFIWLNIAGLVALRVRPELPSRRRTIGSVVIALGYLLVLGYVGGVYGTGGQGTGLRLVTQAPPGFSPTVVFSGATLSVVLIPWKVAGYLALSYLVFVTAVDASGGAVGGIVGLFSCVSCVLPILASILGGFVGVGATLSQAALSQSYGLSTVVFVTSVGLLYGVHRFDVTLVGRLQALVDRP	failed
MSTYDTAVLDDTLVSCLSQLIGAEHIDTLTLEGRFEITRIAAALSGRPGPAPRAILMSGLQGSGKTTLARALEAAGFRRLCPDEEMFRRYGHYGRDFPRGEFRVREAPVLKDIALELQELLTAGHEVVVDHGFWTREERAQWAMTVMEAGGKPVLIYLPVPHEVRWDRIRKRNEQSLVDANSIEFSEEDLLRHAGRFSPPTDDEPHIVYDGQPDSVLADIQLSRHFDALEHHHHHH	failed
MSVAAEVAQVAQSAIDDFNAAYGLCLDDDRLEQWPTLFVDDCLYQVIARENVDNGLPAAVMYCDSKGMLADRVVALRKANVFPEHFNRHLIGRAVITGVEGDQVSAEASYVVFQTRNDGETRIYNAGKYVDRFDLSGGTVRLKSRTCIYDTLRIATLLATPI	not failed
MSVAAGGPAGAAIPESRLMALGIIGGLGGIYASTVNPVIGPVFASLGAVCAIIWGADAIRRVASYGLGTGVPSIGYMSVSIGIVGVVAGLASVFTLPALAAPVVGLILAMILGVVVAVLGKKIVKMKIPILEKCTAEISGAAALSVLGFSAAIAGSYTMQAVLTSVIATGFIGLLFILNTMAIQHPFNACLGPNENQTRTLKLAASTGFISMAIAGLLGIGLNPGWWLVSLVGALCWVVAFKSFVSASFEEAASVKWSGLWPKEEEQ	failed
